Assay results: patent publication US5789157

System: unidentified red blood cell ghost membrane protein, apparent 105 kDa (target of c56t) (Homo sapiens)
Experiment: filter
Details: Scatchard on whole RBC ghosts, estimated, 1900 sites per cell; target taken as the 105 kDa protein from crosslinking

Sequence: AACTCAGTGGTAGGTAACGGTT [C56T (22-nt truncate of clone 56)]
- Kd: 0.042 nM
